Data taken from patent publication US9493537 (STC UNM, dated 2016).
Positions of bridges follow the written chain, without caps; N, C: chain ends. Non-standard residues stand in square brackets, D forms with d. *: point of attachment. DOTA = O=C(O)CN1CCN(CC(=O)O)CCN(CC(=O)*)CCN(CC(=O)O)CC1; Nle = CCCC[C@H](N)C(=O)O

Legend:
[1] = target: T1, melanocortin-1 (MC1) receptor on B16/F1 murine melanoma cells (mouse (B16/F1 murine melanoma cells), UniProt Q01727 1-315); assay: competitive binding on B16/F1 melanoma cells against 125I-Tyr2-NDP-MSH; row head 'MC1R binding affinity (nM)'
T1 construct: whole, on cells; Endogenous receptor of the B16/F1 cells, in culture and as flank tumours in C57 mice; also called MCI receptor; MSH receptor
T1 sequence (Q01727 whole entry): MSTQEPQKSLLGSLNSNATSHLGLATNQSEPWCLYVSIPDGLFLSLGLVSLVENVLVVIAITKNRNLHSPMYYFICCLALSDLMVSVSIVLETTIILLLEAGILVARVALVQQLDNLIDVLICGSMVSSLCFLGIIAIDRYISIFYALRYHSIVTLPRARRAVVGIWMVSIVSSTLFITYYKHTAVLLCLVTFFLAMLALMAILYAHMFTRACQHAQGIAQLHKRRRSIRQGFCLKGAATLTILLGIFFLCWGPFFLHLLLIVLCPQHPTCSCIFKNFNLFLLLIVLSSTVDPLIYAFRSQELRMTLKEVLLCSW
Protocol: (§1) The medium was aspirated after the incubation. The cells were rinsed twice with 0.5 mL of ice-cold pH 7.4, 0.2% BSA/0.01 M phosphate buffered saline (PBS) and lysed in 0.5 mL of 1 N NaOH for 5 minutes. The activities associated with cells were measured in a Wallac 1480 automated gamma counter (PerkinElmer, Waltham, Mass.). The $IC50$ value of each peptide was calculated using Prism software (GraphPad Software, La Jolla, Calif.).

[2] = target: T1, melanocortin-1 (MC1) receptor on B16/F1 …; assay: competitive binding on B16/F1 melanoma cells against 125I-Tyr2-NDP-MSH
Protocol: as §1

Binder	IC50 [1] [nM]	fold lower receptor binding affinity than DOTA-GGNle-CycMSHhex and DOTA-GENle-CycMSHhex [2] [fold]
{DOTA}-GG[Nle]DH[dF]RWK-NH2 (lactam 4-9; SMILES CCCC[C@H](NC(=O)CNC(=O)CNC(=O)CN1CCN(CC(=O)O)CCN(CC(=O)O)CCN(CC(=O)O)CC1)C(=O)N[C@H]1CC(=O)NCCCC[C@@H](C(N)=O)NC(=O)[C@H](Cc2c[nH]c3ccccc23)NC(=O)[C@H](CCCNC(=N)N)NC(=O)[C@@H](Cc2ccccc2)NC(=O)[C@H](Cc2c[nH]cn2)NC1=O, Synthetic; also called DOTA-GlyGlyNle-CycMSHhex) [DOTA-GGNle-CycMSHhex]	2.1	–
{DOTA}-GE[Nle]DH[dF]RWK-NH2 (lactam 4-9; SMILES CCCC[C@H](NC(=O)[C@H](CCC(=O)O)NC(=O)CNC(=O)CN1CCN(CC(=O)O)CCN(CC(=O)O)CCN(CC(=O)O)CC1)C(=O)N[C@H]1CC(=O)NCCCC[C@@H](C(N)=O)NC(=O)[C@H](Cc2c[nH]c3ccccc23)NC(=O)[C@H](CCCNC(=N)N)NC(=O)[C@@H](Cc2ccccc2)NC(=O)[C@H](Cc2c[nH]cn2)NC1=O, Synthetic; also called DOTA-GlyGluNle-CycMSHhex) [DOTA-GENle-CycMSHhex]	11.5	–
{DOTA}-[Nle]GEDH[dF]RWK-NH2 (lactam 4-9; SMILES CCCC[C@H](NC(=O)CN1CCN(CC(=O)O)CCN(CC(=O)O)CCN(CC(=O)O)CC1)C(=O)NCC(=O)N[C@@H](CCC(=O)O)C(=O)N[C@H]1CC(=O)NCCCC[C@@H](C(N)=O)NC(=O)[C@H](Cc2c[nH]c3ccccc23)NC(=O)[C@H](CCCNC(=N)N)NC(=O)[C@@H](Cc2ccccc2)NC(=O)[C@H](Cc2c[nH]cn2)NC1=O, Synthetic; also called DOTA-NleGlyGlu-CycMSHhex) [DOTA-NleGE-CycMSHhex]	873	≥ 78
